Data from the supplement of paper PMC10567573.

B1: HESX1 (parent)
chain: ENKPSTCSFSIERILGLDQKKDCV

Variants of: B1
Test: protein stability index of a GFP-peptide fusion (GPS, HEK-293T) (PSI 1-6); higher = more stable
Settings: c terminus: a fixed tail appended
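Further: lentivirally expressed fusions sorted by FACS into six bins by GFP to DsRed ratio, PSI derived from sequencing read proportions per bin multiplied by bin number.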

Protein stability index: each site, then its substitutions
S10: E 3.01, C 2.38, M 2.48, H 3.5, R 2.71, A 2.86, F 2.84, T 4.07, G 3.27, N 3.27, D 4, Q 3.26, V 2.29, P 4.28, L 3.05, W 2.76, Y 2.8, I 2.62, K 3.77
N2: Q 2.93, M 2.53, V 2.88, S 2.87, P 2.82, L 2.79, W 1.91, R 2.88, T 2.91, Y 1.77
C7: Y 3.43, G 3.87, I 1.84, E 4.23, M 3.32, P 4.01, A 3.58, F 3.11, R 3.92, N 4.05, L 2.94, H 3.91, D 4.13, W 2.33, T 3.74, Q 3.96, S 3.98, V 3.17, K 3.52
T6: H 3.24, A 3.46, Y 3.16, K 2.41, P 2.77, M 2.37, L 3.14, R 2, F 2.85, C 2.43, I 2.9, W 2.53, Q 3.12, S 3.12, D 3.96, G 3.5, N 3.06, V 2.71, E 3.39
I11: C 3.27, A 3.27, G 3.13, D 4.04, E 5.05, F 3.06
K3: P 3.17, H 3.42, M 2.92, W 2.93, N 3.04, F 2.16, E 3.85, I 2.84, D 3.66, V 2.71, A 3.59, Y 2.83, T 2.53, Q 3.41, L 2.35, G 3.1, C 2.78, R 2.58, S 3.84
F9: R 3.88, C 3.43, N 4.2, I 3.43, Y 3.52, A 3.86, H 4.15, P 5.09, T 4.45, K 4.3, V 4.09, G 4.43, D 4.24, S 3.97, E 4.41, Q 4.3, W 2.42, L 4.07, M 2.79
S8: W 2.14, E 4.18, F 3.04, P 4.2, M 3.73, R 2.79, V 3.1, H 2.7, Y 2.66, K 2.94, T 3.52, I 2.83, Q 3.23, D 3.88, G 2.51, A 3.46, C 4.28, N 3.07, L 3.07
P4: S 2.71, T 3.67, W 2.54, Q 3.18, K 2.7, R 3.41, I 3.02, G 2.84, L 2.86, H 2.52, F 2.62, N 2.79, Y 1.94, C 2.42, D 3.86, M 2.99, V 3.35, A 2.99
S5: T 3.42, I 3.02, G 3.31, M 2.75, D 3.16, C 2.71, V 2.5, L 2.18, Q 2.89, N 3.09, R 2.56, P 3.48, F 1.96, K 2.85, Y 2.54, E 3.77, W 2.13, A 2.94, H 2.81
